# Test results published in patent publication US6156511A, “Peptide library and screening method” (Affymax Technologies N.V., priority 1998, dated 2000).
# Like-named read-outs stand apart in the source and are kept apart here.
# Tests used:
# [1] = target: Lac repressor (LacI)-peptide fusion, full length (Escherichia coli) (UniProt P03023); conditions: plasmid panning on D32.39 antibody; deletion of lacOs, near background
# [2] = target: headpiece dimer A4.5 (mutant) Q18R (second headpiece) (Escherichia coli) (UniProt P03023); conditions: panning of protein-plasmid complex
# [3] = system: DNA; conditions: cited from earlier work
# [4] = target: headpiece dimer B4.5 (mutant) Q18R (second headpiece) (Escherichia coli) (UniProt P03023); conditions: panning Exp. 3; lacOs plasmid complex stability, site of binding not established
# [5] = system: plasmid pCMG14 fragments / lacOs-containing fragments; assay: Protein-DNA binding experiments with plasmid fragments (gel shift, 32P-labeled fragments); conditions: over-expressed polypeptides; with unlabelled herring DNA competitor
# Experimental: To determine the plasmid binding site(s) of headpiece dimer mutant A4.5 and the non-mutant B7, several protein-DNA binding experiments were performed.
# [6] = system: wild-type lacO; conditions: single wild-type lacO; cited from earlier work
# [7] = system: lacZYA; assay: Repression of chromosomal lacZYA, direct β-galactosidase assay in strain ARI 20; type: cell-based, E. coli
# Text: One can estimate the lacI expression level necessary to fill the available binding sites in a typical plasmid p.MC5 derivative by observing the behavior of strain ARI 20 (lacI^- lacZYA^+) transformed with pMC3 or pMC5 (encoding only the linker peptide GADGA [SEQ. ID NO.:65]). Because the lacO sites in plasmids pMC3 and pMC5 have higher affinity than those in the lacZYA operon, the available repressor should fill the plasmid sites first. Substantial repression of lacZYA should be observed only if there is an excess of repressor beyond the amount needed to fill the plasmid sites. As shown by color level on X-gal indicator plates and direct assays of β-galactosidase (see Miller, Experiments in Molecular Genetics (Cold Spring Harbor Laboratory, Cold Spring Harbor, N.Y. (1972)), incorporated herein by reference), the amount of repressor produced by pMC5 is sufficient to fill the lacO sites and repress greater than 200 fold lacZYA in ARI 20 host cells during growth in normal LB medium (2.4 units compared to 500 units from ARI 20 transformed with vector pBAD18, which has no lacI). The repressor encoded by pMC3 was partially inactivated by the addition of the dynorphin B tail, allowing about 10 fold higher expression of lacZYA (37 units). […]
# [8] = target: Lac repressor (LacI)-peptide fusion, full length (Escherichia coli, UniProt P03023 P03023:1-360); assay: panning Exp. 3, partial (B) induction; conditions: chain copies: 4 (stated tetramer)
molecule,measurement,setting,value
plasmid lacking lacOs,binding signal (fold drop in enrichment),[1],446
same,binding signal (fold enrichment),[2]; lacOs not required,44
"arc repressor: arc repressor of phage P22 (MKGMSKMPQFNLRWPREVLDLVRKVAEENGRSVNSEIYQRVMESFKKEGRIGA; UniProt P03050 1-53, looked up)",dissociation half-life,[3],1.33 h
AATTGTGAGCGCTCACAATT (double strand),activity (fold enrichment),[4],850
same,binding signal (fold enrichment),[2]; plasmid with lacOs,43
"lac repressor: 37 kDa product of the E. coli lacI gene, binds lacO (protein, UniProt P03023 1-360, looked up) Lactose operon repressor: MKPVTLYDVAEYAGVSYQTVSRVVNQASHVSAKTREKVEAAMAELNYIPNRVAQQLAGKQSLLIGVATSSLALHAPSQIVAAIKSRADQLGASVVVSMVERSGVEACKAAVHNLLAQRVSGLIINYPLDDQDAIAVEAACTNVPALFLDVSDQTPINSIIFSHEDGTRLGVEHLVALGHQQIALLAGPLSSVSARLRLAGWHKYLTRNQIQPIAEREGDWSAMSGFQQTMQMLNEGIVPTAMLVANDQMALGAMRAITESGLRVGADISVVGYDDTEDSSCYIPPLTTIKQDFRLLGQTSVDRLLQLSQGQAVKGNQLLPVSLVKRKTTLAPNTQTASPRALADSLMQLARQVSRLESGQ",binding to 32P-labeled plasmid fragments,[5],specific binding of lacI to lacOs -containing fragments
same,association rate constant,[6],7e+09 M⁻¹ s⁻¹
same,half-life for the lac repressor-lacO complex,[6],about 30 min
"pMC5: library plasmid encoding lac repressor with only the linker peptide GADGA (protein, UniProt P03023 1-360, looked up, C-terminal GADGA linker peptide) Lactose operon repressor: MKPVTLYDVAEYAGVSYQTVSRVVNQASHVSAKTREKVEAAMAELNYIPNRVAQQLAGKQSLLIGVATSSLALHAPSQIVAAIKSRADQLGASVVVSMVERSGVEACKAAVHNLLAQRVSGLIINYPLDDQDAIAVEAACTNVPALFLDVSDQTPINSIIFSHEDGTRLGVEHLVALGHQQIALLAGPLSSVSARLRLAGWHKYLTRNQIQPIAEREGDWSAMSGFQQTMQMLNEGIVPTAMLVANDQMALGAMRAITESGLRVGADISVVGYDDTEDSSCYIPPLTTIKQDFRLLGQTSVDRLLQLSQGQAVKGNQLLPVSLVKRKTTLAPNTQTASPRALADSLMQLARQVSRLESGQ",repression of lacZYA,"[7]; ARI 20, LB medium, compared with vector pBAD18 (no lacI)",greater than 200 fold
same,β-galactosidase,"[7]; ARI 20 host cells, normal LB medium",2.4 units
lacOs (symmetric lac operator) on plasmid or plasmid fragment (dsDNA) DNA 1: AATTGTGAGCGCTCACAATT DNA 2: AATTGTGAGCGCTCACAATT,activity,[8],155 fold enrichment
